Measured values: patent US20070218064A1 (published 2007)

molecular target: T1, recombinant human IL-23 (hrIL-23), produced at Centocor (human, UniProt P29460 23-328); assay: cell-based or functional assay
T1 sequence 1: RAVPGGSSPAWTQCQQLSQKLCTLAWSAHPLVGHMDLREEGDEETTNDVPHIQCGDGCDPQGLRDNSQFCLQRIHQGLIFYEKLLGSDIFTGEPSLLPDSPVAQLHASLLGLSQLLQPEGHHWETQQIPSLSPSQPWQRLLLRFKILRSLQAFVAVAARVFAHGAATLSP
T1 sequence 2: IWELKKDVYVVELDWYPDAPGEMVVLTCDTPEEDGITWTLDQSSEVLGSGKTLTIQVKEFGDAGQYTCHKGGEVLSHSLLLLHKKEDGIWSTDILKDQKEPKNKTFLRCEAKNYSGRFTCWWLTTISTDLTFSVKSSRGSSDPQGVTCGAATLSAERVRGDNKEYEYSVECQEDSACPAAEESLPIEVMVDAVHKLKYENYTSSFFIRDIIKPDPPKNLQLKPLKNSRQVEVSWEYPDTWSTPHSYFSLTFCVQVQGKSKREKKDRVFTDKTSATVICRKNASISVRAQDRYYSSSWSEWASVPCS

Binder	Inhibition of IL-17 production, IC50
mAb MOR05028 (antibody, IgG1, V domains shown) VH: QVELVQSGAEVKKPGSSVKVSCKASGGTFSNYAISWVRQAPGQGLEWMGGIIPFGYAQKFQGRVTITADESTSTAYMELSSLRSEDTAVYYCARDIYAGMDVWGQGTLVTVSS VL: not shown	0.104 µg/mL
mAb MOR05032 (antibody, IgG1, V domains shown) VH: QVELVQSGAEVKKPGSSVKVSCKASGGTFSSNYISWVRQAPGQGLEWMGGIIPIFGHANYAQKFQGRVTITADESTSTAYMELSSLRSEDTAVYYCARSKKGMYGGWTYPLMMFDLWGQGTLVTVSS VL: DIVLTQSPATLSLSPGERATLSCRASQSVSSNYLAWYQQKPGQAPRLLIYYASRRATGVPARFSGSGSGTDFTLTISSLEPEDFAYYCQQNPFTFGQGTKVEIK	0.172 µg/mL
mAb MOR05031 (antibody, IgG1, V domains shown) VH: QVELVQSGAEVKKPGSSVKVSCKASGGTFSSNYISWVRQAPGQGLEWMGGIIPIFGHANYAQKFQGRVTITADESTSTAYMELSSLRSEDTAVYYCARSKKGMYGGWTYPLMMFDLWGQGTLVTVSS VL: DIVLTQSPATLSLSPGERATLSCRASQSVSSNYLAWYQQKPGQAPRLLIYYASRRATGVPARFSGSGSGTDFTLTISSLEPEDFAYYCQQTPFTFGQGTKVEIK	0.215 µg/mL
mAb MOR05056 (antibody, IgG1, V domains shown) VH: not shown VL: DIALTQPASVSGSPGQSITISCTGTSSDVGGYNSVSWYQQHPGKAPKLMIYSVSSRPSGVSNRFSGSKSGNTASLTISGLQAEDEADYYCSSYDTNKPLVVFGGGTKLTVL	0.092 µg/mL
mAb MOR05039 (antibody, IgG1, V domains shown) VH: QVELVESGGGLVQPGGSLRLSCAASGFTFSSFGMSWVRQAPGKGLEWVSNITYYASVKGRFTISRDNSKNTLYLQMNSLRAEDTAVYYCARYWGTPYLMQFDNWGQGTLVTVSS VL: DIALTQPASVSGSPGQSITISCTGTSSDVGGYNSVSWYQQHPGKAPKLMIYSVSSRPSGVSNRFSGSKSGNTASLTISGLQAEDEADYYCSSYDTNKPLVVFGGGTKLTVL	0.161 µg/mL
mAb MOR05063 (antibody, IgG1, V domains shown) VH: QVELVESGGGLVQPGGSLRLSCAASGFTFSSFGMSWVRQAPGKGLEWVSNISSSGSSTYYADSVKGRFTISRDNSKNTLYLQMNSLRAEDTAVYYCARYWGTPYLMQFDNWGQGTLVTVSS VL: DIALTQPASVSGSPGQSITISCTGTSSDVGGYNSVSWYQQHPGKAPKLMIYSVSSRPSGVSNRFSGSKSGNTASLTISGLQAEDEADYYCSDVFGGGTKLTVL	0.198 µg/mL
mAb MOR05062 (antibody, IgG1, V domains shown) VH: QVELVESGGGLVQPGGSLRLSCAASGFTFSSFGMSWVRQAPGKGLEWVSNISSSGSSTYYADSVKGRFTISRDNSKNTLYLQMNSLRAEDTAVYYCARYWGTPYLMQFDNWGQGTLVTVSS VL: DIALTQPASVSGSPGQSITISCTGTSSDVGGYNSVSWYQQHPGKAPKLMIYSVSSRPSGVSNRFSGSKSGNTASLTISGLQAEDEADYYCYVFGGGTKLTVL	0.199 µg/mL
mAb MOR05061 (antibody, IgG1, V domains shown) VH: QVELVESGGGLVQPGGSLRLSCAASGFTFSSFGMSWVRQAPGKGLEWVSNISSSGSSTYYADSVKGRFTISRDNSKNTLYLQMNSLRAEDTAVYYCARYWGTPYLMQFDNWGQGTLVTVSS VL: DIALTQPASVSGSPGQSITISCTGTSSDVGGYNSVSWYQQHPGKAPKLMIYSVSSRPSGVSNRFSGSKSGNTASLTISGLQAEDEADYYCSSYVFGGGTKLTVL	0.309 µg/mL
mAb MOR05036 (antibody, IgG1, V domains shown) VH: QVELVQSGAEVKKPGSSVKVSCKASGGTFSSNYISWVRQAPGQGLEWMGIPFGAYAQKFQGRVTITADESTSTAYMELSSLRSEDTAVYYCARSKKGMYGGWTYPLMMFDLWGQGTLVTVSS VL: not shown	0.17 µg/mL
mAb MOR05037 (antibody, IgG1, V domains shown) VH: QVELVQSGAEVKKPGSSVKVSCKASGGTFSSNYISWVRQAPGQGLEWMGIPFGAYAQKFQGRVTITADESTSTAYMELSSLRSEDTAVYYCARSKKGMYGGWTYPLMMFDLWGQGTLVTVSS VL: not shown	0.336 µg/mL
mAb MOR05033 (antibody, IgG1, V domains shown) VH: QVELVQSGAEVKKPGSSVKVSCKASGGTFSSNYISWVRQAPGQGLEWMGIIPGAYAQKFQGRVTITADESTSTAYMELSSLRSEDTAVYYCARSKKGMYGGWTYPLMMFDLWGQGTLVTVSS VL: not shown	0.283 µg/mL
mAb MOR05034 (antibody, IgG1, V domains shown) VH: QVELVQSGAEVKKPGSSVKVSCKASGGTFSSNYISWVRQAPGQGLEWMGIPFGAYAQKFQGRVTITADESTSTAYMELSSLRSEDTAVYYCARSKKGMYGGWTYPLMMFDLWGQGTLVTVSS VL: not shown	0.185 µg/mL

molecular target: T1, recombinant human IL-23 (hrIL-23), …; assay: IL-23/IL-23R competition assay

Binder	IC50
Fab MOR05046 (Fab, V domains shown, H-CDR2 matured from 4649) VH: QVQLVQSGAEVKKPGESLKISCKGSGYSFSNYWIGWVRQMPGKGLEWMGIIDPVSSWTKYSPSFQGQVTISADKSISTAYLQWSSLKASDTAMYYCARWYYKPFDVWGQGTLVTVSS VL: DIVLTQPPSVSGAPGQRVTISCTGSSSNIGSGYDVHWYQQLPGTAPKLLIYGNSKRPSGVPDRFSGSKSGTSASLAITGLQSEDEADYYCSSWTPSSVVFGGGTKLTVL	0.03 nM

molecular target: T2, recombinant human IL-12 (hrIL-12), produced at Centocor (human, UniProt P29459 23-219; P29460 23-328); assay: ELISA, antigen in solution to immobilized Fab
T2 construct: p35-p40 heterodimer; also called hIL-12; IL-12 CNTO
T2 sequence (looked up) 1: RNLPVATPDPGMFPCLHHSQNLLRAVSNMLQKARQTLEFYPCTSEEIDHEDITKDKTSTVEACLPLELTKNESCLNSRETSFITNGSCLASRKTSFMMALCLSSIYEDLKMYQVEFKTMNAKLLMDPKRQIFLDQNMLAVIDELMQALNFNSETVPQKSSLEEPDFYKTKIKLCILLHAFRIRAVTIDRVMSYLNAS
T2 sequence (looked up) 2: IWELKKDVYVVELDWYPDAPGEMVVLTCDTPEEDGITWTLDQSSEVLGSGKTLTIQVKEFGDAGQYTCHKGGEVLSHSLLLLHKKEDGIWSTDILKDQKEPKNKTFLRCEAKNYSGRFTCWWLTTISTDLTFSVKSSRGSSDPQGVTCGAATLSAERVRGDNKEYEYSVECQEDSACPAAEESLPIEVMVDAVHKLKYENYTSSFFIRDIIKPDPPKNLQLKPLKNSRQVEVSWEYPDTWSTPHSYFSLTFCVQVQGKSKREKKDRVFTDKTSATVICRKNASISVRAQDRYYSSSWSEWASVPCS

Binder	binding result
Fab MOR04649 (Fab, V domains shown, HuCAL Gold Fab, lambda) VH: QVQLVQSGAEVKKPGESLKISCKGSGYSFSNYWIGWVRQMPGKGLEWMGIIDPSNSYTNYSPSFQGQVTISADKSISTAYLQWSSLKASDTAMYYCARWYYKPFDVWGQGTLVTVSS VL: DIVLTQPPSVSGAPGQRVTISCTGSSSNIGSGYDVHWYQQLPGTAPKLLIYGNSKRPSGVPDRFSGSKSGTSASLAITGLQSEDEADYYCSSWTPSSVVFGGGTKLTVL	no binding
Fab MOR04658 (Fab, V domains shown, HuCAL Gold Fab, lambda) VH: QVQLVESGGGLVQPGGSLRLSCAASGFTFSSFGMSWVRQAPGKGLEWVSNISSSGSSTYYADSVKGRFTISRDNSKNTLYLQMNSLRAEDTAVYYCARYWGTPYLMQFDNWGQGTLVTVSS VL: DIALTQPASVSGSPGQSITISCTGTSSDVGGYNSVSWYQQHPGKAPKLMIYSVSSRPSGVSNRFSGSKSGNTASLTISGLQAEDEADYYCSSYDTNKPLVVFGGGTKLTVL	no binding

molecular target: T3, IL-12 (R&D) (UniProt P29459 23-219; P29460 23-328); assay: ELISA, antigen in solution to immobilized Fab
T3 construct: bought from R&D Systems; also called R&D IL-12
T3 sequence (looked up) 1: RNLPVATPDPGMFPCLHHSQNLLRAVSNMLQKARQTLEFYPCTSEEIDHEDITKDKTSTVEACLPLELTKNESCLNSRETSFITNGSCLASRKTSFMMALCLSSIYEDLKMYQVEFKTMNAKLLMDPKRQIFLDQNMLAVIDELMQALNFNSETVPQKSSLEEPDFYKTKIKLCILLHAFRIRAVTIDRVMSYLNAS
T3 sequence (looked up) 2: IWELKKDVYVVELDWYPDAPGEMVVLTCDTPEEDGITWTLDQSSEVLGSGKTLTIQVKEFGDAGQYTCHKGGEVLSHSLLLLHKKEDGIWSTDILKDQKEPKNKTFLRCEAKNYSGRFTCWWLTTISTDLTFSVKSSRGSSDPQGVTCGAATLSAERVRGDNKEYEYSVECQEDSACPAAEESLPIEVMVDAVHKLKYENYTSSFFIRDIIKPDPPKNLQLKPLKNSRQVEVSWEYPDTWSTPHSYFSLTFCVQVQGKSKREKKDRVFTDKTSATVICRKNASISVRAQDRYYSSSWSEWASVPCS

Binder	binding result
Fab MOR04649 (Fab, V domains shown, HuCAL Gold Fab, lambda) VH: QVQLVQSGAEVKKPGESLKISCKGSGYSFSNYWIGWVRQMPGKGLEWMGIIDPSNSYTNYSPSFQGQVTISADKSISTAYLQWSSLKASDTAMYYCARWYYKPFDVWGQGTLVTVSS VL: DIVLTQPPSVSGAPGQRVTISCTGSSSNIGSGYDVHWYQQLPGTAPKLLIYGNSKRPSGVPDRFSGSKSGTSASLAITGLQSEDEADYYCSSWTPSSVVFGGGTKLTVL	no binding
Fab MOR04658 (Fab, V domains shown, HuCAL Gold Fab, lambda) VH: QVQLVESGGGLVQPGGSLRLSCAASGFTFSSFGMSWVRQAPGKGLEWVSNISSSGSSTYYADSVKGRFTISRDNSKNTLYLQMNSLRAEDTAVYYCARYWGTPYLMQFDNWGQGTLVTVSS VL: DIALTQPASVSGSPGQSITISCTGTSSDVGGYNSVSWYQQHPGKAPKLMIYSVSSRPSGVSNRFSGSKSGNTASLTISGLQAEDEADYYCSSYDTNKPLVVFGGGTKLTVL	no binding
